FireProtDB (doi:10.1016/j.jmb.2005.09.091)

B1: Guanyl-specific ribonuclease Sa, P05798 (parent)
chain: DVSGTVCLSALPPEATDTLNLIASDGPFPYSQDGVVFQNRESVLPTQSYGYYHEYTVITPGARTRGTRRIITGEATQEDYYTGDHYATFSLIDQTC

Variants of: B1
Conditions: Kitasatospora aureofaciens, Thermal, structure 1RGG, whole UniProt chain shown
[1] = pH 3, 38.6 °C, CD, Glycine 30 mM
[2] = pH 8.5, 45.9 °C, CD, Mops 30 mM

Row | Variant | ddG of mutation (higher = less stable) [1] | heat capacity change of unfolding [1] | Tm (pH 3, CD, Glycine 30 mM) | change of melting temperature, mutant - wild type (higher = more stable) (pH 3, CD, Glycine 30 mM) | unfolding enthalpy (van 't Hoff) (pH 3, CD, Glycine 30 mM) | ddG of mutation (higher = less stable) (pH 7, 52.6 °C, CD, Mops 30 mM) | heat capacity change of unfolding (pH 7, 52.6 °C, CD, Mops 30 mM) | ddG of mutation (higher = less stable) (pH 7, 52.6 °C, DSC, Mops 30 mM) | heat capacity change of unfolding (pH 7, 52.6 °C, DSC, Mops 30 mM) | Tm (pH 7, CD, Mops 30 mM) | change of melting temperature, mutant - wild type (higher = more stable) (pH 7, CD, Mops 30 mM) | unfolding enthalpy (van 't Hoff) (pH 7, CD, Mops 30 mM) | Tm (pH 8.5, CD, Mops 30 mM) | change of melting temperature, mutant - wild type (higher = more stable) (pH 8.5, CD, Mops 30 mM) | unfolding enthalpy (van 't Hoff) (pH 8.5, CD, Mops 30 mM) | ddG of mutation (higher = less stable) [2] | heat capacity change of unfolding [2]
1 | D79A | 0.3 kcal/mol | 1.52 kcal/mol/K | 38.6 °C | -1.3 °C | 75 kcal/mol | -2.8 kcal/mol | 1.52 kcal/mol/K | -2.7 kcal/mol | 1.52 kcal/mol/K | 57 °C | 9.2 °C | 94 kcal/mol | 50.4 °C | 11.7 °C | 95 kcal/mol | – | –
2 | D79F | 0.3 kcal/mol | 1.52 kcal/mol/K | 38.5 °C | -1.4 °C | 67 kcal/mol | – | – | -3 kcal/mol | 1.52 kcal/mol/K | 57.8 °C | 10 °C | 89 kcal/mol | 51.8 °C | 13.1 °C | 82 kcal/mol | -3.7 kcal/mol | 1.52 kcal/mol/K
3 | D79N | 1.2 kcal/mol | 1.52 kcal/mol/K | 35.1 °C | -4.8 °C | 69 kcal/mol | -1.8 kcal/mol | 1.52 kcal/mol/K | -1.8 kcal/mol | 1.52 kcal/mol/K | 53.4 °C | 5.5 °C | 96 kcal/mol | 46.3 °C | 7.6 °C | 65 kcal/mol | -2.3 kcal/mol | 1.52 kcal/mol/K
4 | Q94K | -0.2 kcal/mol | 1.52 kcal/mol/K | 40.8 °C | 0.9 °C | 64 kcal/mol | -0.3 kcal/mol | 1.52 kcal/mol/K | – | – | 48.6 °C | 0.8 °C | 96 kcal/mol | – | – | – | -1.1 kcal/mol | 1.52 kcal/mol/K
